Kd, DNA-binding specificity ratio (nonspecific Kd / specific Kd) (fold (Kdns/Kd)) and binding signal (fold (Kdns/Kd)) data for 4 substances are collected here from patent US6410248.

The test system of data set [1] is TATA box-selected zinc finger protein (Zif268 variant, boxed clone FIG. 3A) (artificial). Kind of data set: EMSA. The settings on record: same buffer, 5 mM MgCl2, 20 uM ZnSO4, pH 7.9. A general note: A gel shift assay detects complexes by their altered migration in electrophoresis.
Data set [2] concerns NRE-selected zinc finger protein (Zif268 variant, boxed clone FIG. 3C) (artificial). The data set is described as follows: EMSA. The settings on record: same buffer, 5 mM MgCl2, 20 uM ZnSO4, pH 7.9.
In data set [3] the test system is p53 site-selected zinc finger protein (Zif268 variant, boxed clone FIG. 3B) (artificial). The data set is described as follows: EMSA. The settings on record: same buffer, 5 mM MgCl2, 20 uM ZnSO4, pH 7.9.
The test system is the same in data set [4]. Kind of data set: competition. The settings on record: nonspecific over specific dissociation constant ratio; calf thymus competitor in EMSA.
Data set [5] deals with TATA box-selected zinc finger protein (Zif268 variant, boxed clone FIG. 3A) (artificial). The data set is described as follows: competition. Particulars: nonspecific over specific dissociation constant ratio; calf thymus competitor in EMSA.
The test system of data set [6] is NRE-selected zinc finger protein (Zif268 variant, boxed clone FIG. 3C) (artificial). The data set is described as follows: competition. The settings on record: nonspecific over specific dissociation constant ratio; calf thymus competitor in EMSA.
Data set [7] addresses Zif268 zinc fingers 1-3 (wild type) (UniProt P08046). Kind of data set: competition. Particulars: nonspecific over specific dissociation constant ratio; calf thymus competitor in EMSA.

One may read the Kd as a measure of binding affinity in units of concentration. A high value points to a looser complex. Consider “AGGGGGGCTATAAAAGGGGGT (double strand) [TATA box site]”, for which, in data set [1], the Kd was 0.12 nM.

Take “GCCGTCAAGGGTTCAGTGGGG (double strand) [NRE site]”: the Kd in data set [2] was determined as 0.038 nM.

“GCTGTTGGGACATGTTCGTGA (double strand) [p53 binding site]”: the Kd in data set [3] turned out to be 0.11 nM.

Consider calf thymus DNA, for which the DNA-binding specificity ratio (nonspecific Kd / specific Kd) (fold (Kdns/Kd)) in data set [4] worked out at 54000; in data set [5], 25000; in data set [6] it was 36000. Also, the binding signal (fold (Kdns/Kd)) in data set [7] stood at 31000.
